Values quoted from earlier work in article PMC4277939.
pKd: −log10 of the molar value.

Biological target: EAG channel PAS domain PAS domain (Mus musculus) (UniProt Q60603)

EAG channel CNBh domain CNBh domain (from UniProt Q60603)
pKd: 5.00
